From US9981050B2, “Bispecific peptide conjugate and radioactive bispecific peptide imaging agent” (Institute of Nuclear Energy Research, Atomic Energy …, priority 2015, dated 2018)
Like-named read-outs stand apart in the source and are kept apart here. Values belong to the compound of their own block, whether it stands above or below them.

Legend:
[1] = PET/CT imaging in NCI-H292 tumor bearing nude mice; format: in vivo; settings: mouse, iv, subcutaneous NCI-H292 tumor, 11 MBq via tail vein, 2 hours post-injection, PET/CT quantified by PMODE, read-out: tumor/muscle ratio (T/M ratio)
Procedure: In this example, the bispecific peptide conjugate (that is, ^68Ga-NOTA-RGD-GE11) tagged with a radioactive isotope prepared in Example 2 was tested and was compared with monospecific peptide conjugate ^68Ga-NOTA-GE11. The right thigh of nude mice was subcutaneously inoculated with 5×10^6 NCI-H292 tumor cells. The tumors were allowed to grow for about 4 weeks until the tumor size reached 0.5 cm diameter. Then, the animals were anesthetized with isoflorane, injected with 11 MBq ^68Ga-NOTA-RGD-GE11 or ^68Ga-NOTA-GE11 (0.1 mL) via the tail vein, and imaged for 2 hours by Positron Emission Tomography/Computed Tomography (PET/CT). The images were quantified by using PMODE Software.

EGFR in A549 tumor cells = target: T1, EGFR in A549 tumor cells (Homo sapiens, UniProt P00533); test: Specific binding assay: inhibition of anti-EGFR antibody binding to A549 tumor cells; format: cell-based; settings: various concentrations, 2 hrs, absorbance decreases with increasing concentration
T1 construct: endogenous in cells; host or cells: A549 tumor cells
Procedure: (§1) In this example, the bispecific peptide conjugate (that is, NOTA-c(RGDyk)-cys-6-ahx-GE11) prepared in Example 1 was assayed.
(§2) A549 tumor cells were plated in a 96-well plate (5×10^4 cells/well). Various concentrations of NOTA-c(RGDyk)-cys-6-ahx-GE11 and anti-EGFR antibody or anti-integrin αV antibody were added and reacted for 2 hrs. Then, a secondary antibody and ABTS were added and reacted for 8 hrs. The antibody binding was assayed by a fluorimeter.

[2] = target: T2, integrin αV in A549 tumor cells (Homo sapiens, UniProt P05106+P06756); test: Specific binding assay: inhibition of anti-integrin αV antibody binding to A549 tumor cells; format: cell-based; settings: various concentrations, 2 hrs, absorbance decreases with increasing concentration
T2 construct: endogenous in cells; host or cells: A549 tumor cells
T2 sequence (P06756 31-889 limits assumed): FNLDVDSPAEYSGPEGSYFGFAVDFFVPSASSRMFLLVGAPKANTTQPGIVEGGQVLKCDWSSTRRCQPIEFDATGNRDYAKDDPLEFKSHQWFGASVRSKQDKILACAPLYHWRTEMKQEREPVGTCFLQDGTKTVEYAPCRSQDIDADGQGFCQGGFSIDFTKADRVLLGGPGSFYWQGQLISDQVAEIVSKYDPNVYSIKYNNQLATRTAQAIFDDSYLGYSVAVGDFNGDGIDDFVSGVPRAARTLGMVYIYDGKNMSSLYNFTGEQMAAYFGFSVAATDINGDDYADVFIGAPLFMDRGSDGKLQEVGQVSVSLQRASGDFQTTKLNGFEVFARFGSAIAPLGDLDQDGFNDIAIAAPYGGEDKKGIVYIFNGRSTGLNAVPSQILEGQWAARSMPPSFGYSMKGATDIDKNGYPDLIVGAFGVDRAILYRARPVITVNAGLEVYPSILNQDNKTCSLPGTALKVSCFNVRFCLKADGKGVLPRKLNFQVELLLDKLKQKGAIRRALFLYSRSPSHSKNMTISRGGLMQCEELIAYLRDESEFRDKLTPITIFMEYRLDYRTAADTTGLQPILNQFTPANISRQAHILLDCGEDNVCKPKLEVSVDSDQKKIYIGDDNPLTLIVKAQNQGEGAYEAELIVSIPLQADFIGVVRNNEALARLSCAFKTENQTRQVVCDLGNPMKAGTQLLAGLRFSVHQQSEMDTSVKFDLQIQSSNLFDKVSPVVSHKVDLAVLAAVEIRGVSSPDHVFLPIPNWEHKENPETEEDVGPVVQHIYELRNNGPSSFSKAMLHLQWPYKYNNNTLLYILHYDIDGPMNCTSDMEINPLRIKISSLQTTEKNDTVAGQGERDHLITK
T2 sequence (P06756 891-1048 partner limits assumed): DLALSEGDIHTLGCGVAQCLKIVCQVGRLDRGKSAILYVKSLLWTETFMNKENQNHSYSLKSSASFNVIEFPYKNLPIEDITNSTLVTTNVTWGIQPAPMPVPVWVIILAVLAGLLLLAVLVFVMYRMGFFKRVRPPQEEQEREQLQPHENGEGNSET
T2 sequence (P05106 27-788): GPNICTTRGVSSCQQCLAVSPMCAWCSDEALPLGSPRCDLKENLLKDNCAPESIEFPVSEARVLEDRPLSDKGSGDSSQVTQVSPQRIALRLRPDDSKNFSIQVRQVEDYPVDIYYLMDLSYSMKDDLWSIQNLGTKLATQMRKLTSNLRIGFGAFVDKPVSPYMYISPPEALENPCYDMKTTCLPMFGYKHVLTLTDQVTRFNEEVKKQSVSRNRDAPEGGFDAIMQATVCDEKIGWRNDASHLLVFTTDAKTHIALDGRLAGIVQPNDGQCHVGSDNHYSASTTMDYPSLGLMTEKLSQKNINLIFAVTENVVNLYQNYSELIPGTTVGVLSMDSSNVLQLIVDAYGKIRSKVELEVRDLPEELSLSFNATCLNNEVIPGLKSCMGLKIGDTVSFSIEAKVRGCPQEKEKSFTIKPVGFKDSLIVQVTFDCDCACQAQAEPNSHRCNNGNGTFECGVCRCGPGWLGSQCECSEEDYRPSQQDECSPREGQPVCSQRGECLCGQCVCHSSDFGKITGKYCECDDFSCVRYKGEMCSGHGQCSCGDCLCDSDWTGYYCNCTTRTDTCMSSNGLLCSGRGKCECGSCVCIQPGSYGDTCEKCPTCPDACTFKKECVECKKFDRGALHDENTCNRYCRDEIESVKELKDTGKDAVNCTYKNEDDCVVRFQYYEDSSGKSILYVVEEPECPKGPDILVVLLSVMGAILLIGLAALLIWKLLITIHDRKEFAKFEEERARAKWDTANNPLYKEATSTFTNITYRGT
Procedure: as §1, §2

Compound: CC[C@H](C)[C@H](NC(=O)[C@@H](NC(=O)[C@H](CC(N)=O)NC(=O)[C@H](CCC(N)=O)NC(=O)[C@@H]1CCCN1C(=O)[C@@H](NC(=O)[C@H](Cc1ccc(O)cc1)NC(=O)CNC(=O)[C@H](Cc1ccc(O)cc1)NC(=O)[C@H](Cc1c[nH]c2ccccc12)NC(=O)[C@H](Cc1c[nH]cn1)NC(=O)[C@H](Cc1ccc(O)cc1)NC(=O)CCCCCNC(=O)[C@H](CS)NC(=O)CN1CCN(CC(=O)O)CCN(CC(=O)O)CC1)[C@@H](C)O)C(C)C)C(=O)O [^68Ga-NOTA-GE11, metal not drawn, reference compound]
tissue to tissue ratio at 2 h ([1]; in vivo): 1.87

Compound: CC[C@H](C)[C@H](NC(=O)[C@@H](NC(=O)[C@H](CC(N)=O)NC(=O)[C@H](CCC(N)=O)NC(=O)[C@@H]1CCCN1C(=O)[C@@H](NC(=O)[C@H](Cc1ccc(O)cc1)NC(=O)CNC(=O)[C@H](Cc1ccc(O)cc1)NC(=O)[C@H](Cc1c[nH]c2ccccc12)NC(=O)[C@H](Cc1c[nH]cn1)NC(=O)[C@H](Cc1ccc(O)cc1)NC(=O)CCCCCNC(=O)[C@H](CSC1CC(=O)N(CCC(=O)NCCCC[C@@H]2NC(=O)[C@@H](Cc3ccc(O)cc3)NC(=O)[C@H](CC(=O)O)NC(=O)CNC(=O)[C@H](CCCNC(=N)N)NC2=O)C1=O)NC(=O)CN1CCN(CC(=O)O)CCN(CC(=O)O)CC1)[C@@H](C)O)C(C)C)C(=O)O (stereo partly shown) [^68Ga-NOTA-RGD-GE11, metal not drawn]
tissue to tissue ratio at 2 h ([1]; tumor / muscle, total radioactivity): 4.31

inhibition of the binding of the anti-EGFR antibody to tumor cells (EGFR in A549 tumor cells): can effectively inhibit the binding
inhibition of the binding of the anti-integrin αV antibody to tumor cells [2]: can effectively inhibit the binding
Compound: NOTA-c(RGDyk)-cys-6-ahx-GE11
